From the supplement of paper PMC9112550, “Optimization of the antimicrobial peptide Bac7 by deep mutational scanning” (BMC Biology, 2022)

Test system: Escherichia coli TOP10
Test: shrunken log2 fold change of peptide-encoding DNA abundance (4.5 h post-induction vs induction); higher = less antimicrobial activity (less host growth inhibition)
Details: time post-induction: 4.5 h; library: site-saturation at positions 5, 18, 19, 20
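Further: peptides expressed intracellularly from a pBAD plasmid library in pooled LB shake-flask culture, induced with 0.3% L-arabinose, DNA abundance read by NGS, three biological replicates, DESeq2 with apeglm shrinkage.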

Sequence	shrunken log2 fold change
RRIRRRPPRLPRPRPRPVLNPRP	0.0825
RRIRQRPPRLPRPRPRPWFWPRP	0.00186
RRIRGRPPRLPRPRPRPQFRPRP	0.0341
RRIRDRPPRLPRPRPRPAIDPRP	0.336
RRIRWRPPRLPRPRPRPHQLPRP	0.117
RRIRSRPPRLPRPRPRPVVMPRP	0.0334
RRIRNRPPRLPRPRPRPGVWPRP	0.474
RRIRRRPPRLPRPRPRPSGVPRP	-0.181
RRIRVRPPRLPRPRPRPWFKPRP	0.0333
RRIRCRPPRLPRPRPRPMDRPRP	-0.0115
RRIRYRPPRLPRPRPRPNNIPRP	-1.24
RRIRHRPPRLPRPRPRPGKTPRP	-0.031
RRIRIRPPRLPRPRPRPPQEPRP	-0.0258
RRIRDRPPRLPRPRPRPYGVPRP	0.00737
RRIRWRPPRLPRPRPRPCMGPRP	-0.0956
RRIRRRPPRLPRPRPRPAIMPRP	0.275
RRIRCRPPRLPRPRPRPACAPRP	0.433
RRIRYRPPRLPRPRPRPGMCPRP	0.0154
RRIRVRPPRLPRPRPRPLNMPRP	-1.14
RRIRKRPPRLPRPRPRPTATPRP	1.4
RRIRGRPPRLPRPRPRPIWAPRP	0.267
RRIRYRPPRLPRPRPRPAKRPRP	0.167
RRIRFRPPRLPRPRPRPFLTPRP	-0.172
RRIRVRPPRLPRPRPRPKRMPRP	0.117
RRIRRRPPRLPRPRPRPGNPPRP	0.608

Sequence	shrunken log2 fold change
RRIRKRPPRLPRPRPRPHDGPRP	0.0431
RRIRLRPPRLPRPRPRPYQVPRP	-0.0302
RRIRSRPPRLPRPRPRPKLYPRP	-0.199
RRIRWRPPRLPRPRPRPRSWPRP	1.07
RRIRYRPPRLPRPRPRPYMIPRP	-0.0298
RRIRPRPPRLPRPRPRPADRPRP	0.408
RRIRGRPPRLPRPRPRPHRVPRP	0.0916
RRIRLRPPRLPRPRPRPDKSPRP	-0.118
RRIRVRPPRLPRPRPRPRPNPRP	0.381
RRIRMRPPRLPRPRPRPSRIPRP	0.0606
RRIRHRPPRLPRPRPRPINCPRP	0.00172
RRIRTRPPRLPRPRPRPYGPPRP	-0.406
RRIRPRPPRLPRPRPRPLCLPRP	-0.294
RRIRGRPPRLPRPRPRPNRCPRP	0.422
RRIRLRPPRLPRPRPRPHCRPRP	-0.254
RRIRQRPPRLPRPRPRPANSPRP	-0.0568
RRIRSRPPRLPRPRPRPLFSPRP	-0.0902
RRIRKRPPRLPRPRPRPTYEPRP	0.367
RRIRVRPPRLPRPRPRPSEIPRP	-0.623
RRIRIRPPRLPRPRPRPTTVPRP	-0.319
RRIRWRPPRLPRPRPRPKEFPRP	-0.228
RRIRIRPPRLPRPRPRPHVWPRP	-0.287
RRIRRRPPRLPRPRPRPYEFPRP	-0.187
RRIRFRPPRLPRPRPRPWYPPRP	-0.321
RRIRCRPPRLPRPRPRPYMKPRP	-0.582

Sequence	shrunken log2 fold change
RRIRFRPPRLPRPRPRPHEHPRP	-0.135
RRIRGRPPRLPRPRPRPKKTPRP	0.181
RRIRKRPPRLPRPRPRPHSMPRP	0.0496
RRIRHRPPRLPRPRPRPFFKPRP	-0.149
RRIRTRPPRLPRPRPRPFVGPRP	-0.035
RRIRNRPPRLPRPRPRPLQLPRP	-0.288
RRIRGRPPRLPRPRPRPDSNPRP	-0.0604
RRIRPRPPRLPRPRPRPRYSPRP	-0.354
RRIRARPPRLPRPRPRPNHLPRP	-0.000432
RRIRTRPPRLPRPRPRPAHSPRP	0.0608
RRIRKRPPRLPRPRPRPSKVPRP	-0.131
RRIRSRPPRLPRPRPRPFALPRP	-0.0971
RRIRCRPPRLPRPRPRPVSQPRP	0.201
RRIRLRPPRLPRPRPRPQFGPRP	-0.291
RRIRLRPPRLPRPRPRPALCPRP	0.00966
RRIRPRPPRLPRPRPRPVQGPRP	-0.0469
RRIRCRPPRLPRPRPRPMVTPRP	-0.071
RRIRSRPPRLPRPRPRPMHEPRP	-0.271
RRIRWRPPRLPRPRPRPLWVPRP	0.0766
RRIRYRPPRLPRPRPRPLHTPRP	-0.169
RRIRYRPPRLPRPRPRPRRFPRP	0.256
RRIRLRPPRLPRPRPRPYMFPRP	-0.123
RRIRWRPPRLPRPRPRPGRFPRP	0.152
RRIRDRPPRLPRPRPRPNSCPRP	0.0563
RRIRRRPPRLPRPRPRPLFVPRP	-0.0826

Sequence	shrunken log2 fold change
RRIRFRPPRLPRPRPRPHVNPRP	-0.297
RRIRDRPPRLPRPRPRPCLNPRP	0.0235
RRIRSRPPRLPRPRPRPTYSPRP	-0.453
RRIRGRPPRLPRPRPRPHQWPRP	0.134
RRIRWRPPRLPRPRPRPVWMPRP	0.333
RRIRTRPPRLPRPRPRPMHPPRP	0.0402
RRIRERPPRLPRPRPRPWEWPRP	0.0992
RRIRFRPPRLPRPRPRPFNRPRP	0.0118
RRIRWRPPRLPRPRPRPISDPRP	-0.154
RRIRHRPPRLPRPRPRPYSGPRP	-0.151
RRIRGRPPRLPRPRPRPNSFPRP	-0.0356
RRIRARPPRLPRPRPRPCPWPRP	-0.0222
RRIRTRPPRLPRPRPRPEYTPRP	-0.052
RRIRIRPPRLPRPRPRPAQVPRP	-0.00946
RRIRERPPRLPRPRPRPTEIPRP	0.135
RRIRLRPPRLPRPRPRPYRMPRP	-1.54
RRIRVRPPRLPRPRPRPIDTPRP	-0.48
RRIRIRPPRLPRPRPRPGMEPRP	-0.375
RRIRGRPPRLPRPRPRPKYVPRP	0.0402
RRIRQRPPRLPRPRPRPDVAPRP	-0.116
RRIRDRPPRLPRPRPRPQQIPRP	-0.148
RRIRVRPPRLPRPRPRPRWMPRP	-0.0415
RRIRYRPPRLPRPRPRPINPPRP	-0.269
RRIRRRPPRLPRPRPRPMTCPRP	0.129
RRIRYRPPRLPRPRPRPTKLPRP	-0.683

Sequence	shrunken log2 fold change
RRIRNRPPRLPRPRPRPAMVPRP	-0.0286
RRIRMRPPRLPRPRPRPCHQPRP	-0.0062
RRIRWRPPRLPRPRPRPAKFPRP	0.0295
RRIRKRPPRLPRPRPRPHANPRP	0.18
RRIRSRPPRLPRPRPRPVSCPRP	-0.00594
RRIRQRPPRLPRPRPRPDTEPRP	0.0371
RRIRVRPPRLPRPRPRPQTLPRP	-0.372
RRIRARPPRLPRPRPRPTMYPRP	-0.154
RRIRFRPPRLPRPRPRPGRTPRP	0.301
RRIRARPPRLPRPRPRPKGSPRP	0.199
RRIRLRPPRLPRPRPRPEFMPRP	-0.109
RRIRIRPPRLPRPRPRPTKKPRP	0.0727
RRIRIRPPRLPRPRPRPIIRPRP	-0.453
RRIRSRPPRLPRPRPRPFDLPRP	-0.419
RRIRERPPRLPRPRPRPEKRPRP	-0.0657
RRIRKRPPRLPRPRPRPCPYPRP	0.151
RRIRNRPPRLPRPRPRPEDDPRP	-0.01
RRIRYRPPRLPRPRPRPMCFPRP	-0.335
RRIRARPPRLPRPRPRPSGWPRP	0.861
RRIRRRPPRLPRPRPRPCAQPRP	-0.0794
RRIRKRPPRLPRPRPRPTLPPRP	0.878
RRIRIRPPRLPRPRPRPILTPRP	-0.854
RRIRARPPRLPRPRPRPRWLPRP	0.68
RRIRCRPPRLPRPRPRPLCFPRP	-0.0241
RRIRLRPPRLPRPRPRPMRKPRP	0.651

Sequence	shrunken log2 fold change
RRIRVRPPRLPRPRPRPYYKPRP	-0.67
RRIRYRPPRLPRPRPRPVCIPRP	-1.24
RRIRDRPPRLPRPRPRPCVCPRP	-0.0348
RRIRFRPPRLPRPRPRPDHSPRP	-0.0664
RRIRVRPPRLPRPRPRPNVGPRP	0.00661
RRIRTRPPRLPRPRPRPFGPPRP	0.204
RRIRDRPPRLPRPRPRPKPLPRP	0.101
RRIRCRPPRLPRPRPRPANGPRP	-0.0497
RRIRRRPPRLPRPRPRPYQAPRP	-0.303
RRIRNRPPRLPRPRPRPALLPRP	0.504
RRIRMRPPRLPRPRPRPAVHPRP	0.0654
RRIRVRPPRLPRPRPRPPGCPRP	0.232
RRIRKRPPRLPRPRPRPFVIPRP	-0.363
RRIRLRPPRLPRPRPRPNWFPRP	-0.00982
RRIRIRPPRLPRPRPRPPFLPRP	-0.0978
RRIRFRPPRLPRPRPRPTHAPRP	0.207
RRIRHRPPRLPRPRPRPQDPPRP	0.0646
RRIRDRPPRLPRPRPRPFRGPRP	0.0499
RRIRGRPPRLPRPRPRPACFPRP	0.939
RRIRIRPPRLPRPRPRPMGNPRP	0.0077
RRIRARPPRLPRPRPRPRFGPRP	0.469
RRIRWRPPRLPRPRPRPWRRPRP	0.117
RRIRNRPPRLPRPRPRPPWCPRP	0.108
RRIRNRPPRLPRPRPRPFPIPRP	-0.132
RRIRGRPPRLPRPRPRPWEVPRP	0.0273
